Source: patent publication US20210380703A1 (RIGEL PHARMACEUTICALS, published 2021)
Numbering of substitutions follows the chain as printed.

Columns and labels:
[1] = target: T1, biotinylated goat anti-human kappa light chain; test: ELISA, positive control
T1 construct: positive control of the ELISA
How it was run: (§1)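 ELISA measured binding of ACVR2A-specific monoclonal antibodies to human and mouse ACVR2A. Biotinylated goat anti-human kappa light chain served as positive control and human Fc as negative control.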

[2] = target: T2, human ACVR2A (human, UniProt P27037 20-135, limits assumed); test: ELISA
T2 construct: coated antigen of the initial ELISA; also called activin receptor, type II A
T2 sequence (P27037 20-135 limits assumed): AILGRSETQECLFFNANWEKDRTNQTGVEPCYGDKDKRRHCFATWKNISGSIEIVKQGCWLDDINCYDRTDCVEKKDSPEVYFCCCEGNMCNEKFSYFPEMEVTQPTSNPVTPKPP
How it was run: as §1

[3] = target: T3, mouse ACVR2A (mouse, UniProt P27038 20-135, limits assumed); test: ELISA
T3 construct: coated antigen of the initial ELISA
T3 sequence (P27038 20-135 limits assumed): as the sequence (P27037 20-135 limits assumed) above, with K20R, V73I counted along it
How it was run: as §1
Note: test concentration or dose not given here.

B1: 371_E07 (antibody, V domains shown)
VH: EVQLLESGGGLVQPGGSLRLSCAASGFTFDSYSMNWVRQAPGKGLEWVAGINYNGGYTSYADSVKGRFTISRDNSKNTLYLQMNSLRAEDTAVYYCARGANWHDTALDYWGQGTLVTVSS
VL: DIQMTQSPSSLSASVGDRVTITCRASQSIISYLNWYQQKPGKAPKLLIYAATSLASGVPSRFSGSGSGTDFTLTISSLQPEDFATYYCQQSYESPLTFGGGTKVEIK
notes: Group III
[1]
  optical density: 3.44 OD
[2]
  optical density: 3.09 OD
[3]
  optical density: 3.35 OD

B2: 371_F10 (antibody, V domains shown)
VH: B1 VH with S33G, A49S, G55S
VL: B1 VL with I30S, L47V, A51V, L54R
notes: Group III
[1]
  optical density: 3.53 OD
[2]
  optical density: 2.34 OD
[3]
  optical density: 2.31 OD

B3: 371_G11 (antibody, V domains shown)
VH: B1 VH with D30S, S33G, A49S, G50N, G55S
VL: B1 VL with I30L, L33V, E93D
notes: Group III
[1]
  optical density: 3.67 OD
[2]
  optical density: 2.84 OD
[3]
  optical density: 2.75 OD

B4: 373_A03 (antibody, V domains shown)
VH: B1 VH with D30S, S31D, G50N, S59G
VL: B1 VL with I30L, L47V, L54R, E93D, S94N
notes: Group III
[1]
  optical density: 3.08 OD
[2]
  optical density: 3.65 OD
[3]
  optical density: 3.63 OD

B5: 373_E10 (antibody, V domains shown)
VH: B1 VH with D30S, S31D, A49S
VL: B1 VL with I30L, S31T, L33V, L47V, L54R, A55H, S94T
notes: Group III
[1]
  optical density: 3.2 OD
[2]
  optical density: 3.72 OD
[3]
  optical density: 3.64 OD

B6: 371_H08 (antibody, V domains shown)
VH: B1 VH with D30S, S33G, G50S, T58K, S59G, A106H
VL: B1 VL with L33V, L47V, A51V, L54R, E93D, S94T
notes: Group III
[1]
  optical density: 3.47 OD
[2]
  optical density: 1.66 OD
[3]
  optical density: 2.04 OD

B7: 373_F08 (antibody, V domains shown)
VH: B1 VH with D30S, A49S
VL: B1 VL with I30L, S31T, L54R, E93D, S94T
notes: Group III
[1]
  optical density: 3.21 OD
[2]
  optical density: 3.76 OD
[3]
  optical density: 3.7 OD

B8: 373_D12 (antibody, V domains shown)
VH: B1 VH with A49S, G50S, G55S, T58K, S59G, A106H
VL: B1 VL with I30L, L33V, L54R, E93S, S94L
notes: Group III
[1]
  optical density: 3.21 OD
[2]
  optical density: 3.4 OD
[3]
  optical density: 3.21 OD

B9: 373_C10 (antibody, V domains shown)
VH: B1 VH with D30S
VL: B1 VL with I30L, S31T, L33V, L54R, E93D, S94N
notes: Group III
[1]
  optical density: 3.23 OD
[2]
  optical density: 3.65 OD
[3]
  optical density: 3.65 OD

B10: 373_G08 (antibody, V domains shown)
VH: B1 VH with A49S, G50N
VL: B1 VL with I30L, S31T, E93D
notes: Group III
[1]
  optical density: 3.28 OD
[2]
  optical density: 3.65 OD
[3]
  optical density: 3.67 OD

B11: 371_F11 (antibody, V domains shown)
VH: B1 VH with D30S, A49S
VL: B1 VL with L33V, A51V, L54R, E93D, S94L
notes: Group III
[1]
  optical density: 3.68 OD
[2]
  optical density: 3.04 OD
[3]
  optical density: 3.25 OD

B12: 372_B02 (antibody, V domains shown)
VH: B1 VH with D30S, A49S, G55S
VL: B1 VL with I30L, L33V, A51V, S94T
notes: Group III
[1]
  optical density: 3.67 OD
[2]
  optical density: 3.17 OD
[3]
  optical density: 3.51 OD

B13: 371_G02 (antibody, V domains shown)
VH: B1 VH with S33G, G50S, A106H
VL: B1 VL with I30L, L54R, E93D, S94L
notes: Group III
[1]
  optical density: 3.67 OD
[2]
  optical density: 3.12 OD
[3]
  optical density: 3.06 OD

B14: 373_C07 (antibody, V domains shown)
VH: B1 VH with G55S, A106H
VL: B1 VL with I30L, S31T, L47V, L54R, S94T
notes: Group III
[1]
  optical density: 3.3 OD
[2]
  optical density: 3.57 OD
[3]
  optical density: 3.58 OD

B15: 371_H10 (antibody, V domains shown)
VH: B1 VH with D30S, G55S, T58K, A106H
VL: B1 VL with I30S, S31T, L54R, A55H, S94N
notes: Group III
[1]
  optical density: 3.55 OD
[2]
  optical density: 2.19 OD
[3]
  optical density: 2.55 OD

B16: 373_F12 (antibody, V domains shown)
VH: B1 VH with D30S, A49S, G50N, S59G
VL: B1 VL with I30S, S31T, L47V, L54R, S94T
notes: Group III
[1]
  optical density: 3.06 OD
[2]
  optical density: 3.25 OD
[3]
  optical density: 3.22 OD

B17: 373_F11 (antibody, V domains shown)
VH: B1 VH with S33G, N35H, A49S, G55S, A106H
VL: B1 VL with I30V, L33V, L54R, E93N, S94L
notes: Group III
[1]
  optical density: 3.32 OD
[2]
  optical density: 3.35 OD
[3]
  optical density: 3.46 OD

B18: 373_A11 (antibody, V domains shown)
VH: B1 VH with D30S, S31N, S33G, G50N, S59G
VL: B1 VL with I30L, S31T, L54R, E93D, S94L
notes: Group III
[1]
  optical density: 3.09 OD
[2]
  optical density: 3.76 OD
[3]
  optical density: 3.68 OD

B19: 373_A01 (antibody, V domains shown)
VH: B1 VH with D30S, S33G, A49S, G50N, S59G, A106H
VL: B1 VL with I30V, S31T, L47V, A51T, L54R, E93N, S94L
notes: Group III
[1]
  optical density: 2.95 OD
[2]
  optical density: 3.18 OD
[3]
  optical density: 3.48 OD

B20: 372_D03 (antibody, V domains shown)
VH: B1 VH with D30S, G55S, T58K
VL: B1 VL with I30L, L33V, L47V, A51V, L54R, A55H, E93D
notes: Group III
[1]
  optical density: 3.6 OD
[2]
  optical density: 3.04 OD
[3]
  optical density: 3.29 OD

B21: 373_A12 (antibody, V domains shown)
VH: B1 VH with D30S, A49S, G50S
VL: B1 VL with I30L, S31T, L47V, L54R, E93D, S94T
notes: Group III
[1]
  optical density: 3.09 OD
[2]
  optical density: 3.59 OD
[3]
  optical density: 3.31 OD

B22: 373_B07 (antibody, V domains shown)
VH: B1 VH with A49S
VL: B1 VL with I30L, S31T, L33V, L47V, L54R, S94L
notes: Group III
[1]
  optical density: 3.3 OD
[2]
  optical density: 3.66 OD
[3]
  optical density: 3.61 OD

B23: 371_E10 (antibody, V domains shown)
VH: B1 VH
VL: B1 VL with I30S, S31T, A51V, L54R, E93N
notes: Group III
[1]
  optical density: 3.49 OD
[2]
  optical density: 3.06 OD
[3]
  optical density: 3.05 OD

B24: 371_G09 (antibody, V domains shown)
VH: B1 VH with D30S, G50N, S59G
VL: B1 VL with I30L, L47V, L54R, Y92D, E93S, S94T
notes: Group III
[1]
  optical density: 3.58 OD
[2]
  optical density: 2.75 OD
[3]
  optical density: 3.07 OD

B25: 372_C06 (antibody, V domains shown)
VH: B1 VH with D30S, S31D, A49S
VL: B1 VL with I30V, L33V, L54R, E93S
notes: Group III
[1]
  optical density: 3.49 OD
[2]
  optical density: 3.21 OD
[3]
  optical density: 3.54 OD

B26: 373_D03 (antibody, V domains shown)
VH: B1 VH with D30S, A49S
VL: B1 VL with I30V, E93D, S94T
notes: Group III
[1]
  optical density: 3.18 OD
[2]
  optical density: 3.75 OD
[3]
  optical density: 3.69 OD

B27: 372_E01 (antibody, V domains shown)
VH: B1 VH with S31D, A49S, T58K, S59G
VL: B1 VL with I30V, L47V, L54R, A55H, E93D
notes: Group III
[1]
  optical density: 3.6 OD
[2]
  optical density: 3.34 OD
[3]
  optical density: 3.34 OD

B28: 371_H04 (antibody, V domains shown)
VH: B1 VH with D30S, S33G, A49S, G50N, S59G
VL: B1 VL with I30L, S31T, L54R, E93N
notes: Group III
[1]
  optical density: 3.58 OD
[2]
  optical density: 3.26 OD
[3]
  optical density: 3.51 OD

B29: 371_G04 (antibody, V domains shown)
VH: B1 VH with A49S, T58K
VL: B1 VL with I30L, A55H
notes: Group III
[1]
  optical density: 3.54 OD
[2]
  optical density: 3.62 OD
[3]
  optical density: 3.58 OD

B30: 373_C03 (antibody, V domains shown)
VH: B1 VH with D30S, A49S, T58K
VL: B1 VL with I30V, S31T, L47V, L54R, E93D
notes: Group III
[1]
  optical density: 3.3 OD
[2]
  optical density: 3.69 OD
[3]
  optical density: 3.65 OD

B31: 371_H05 (antibody, V domains shown)
VH: B1 VH with D30S, S33G, A49S, G55S, T58K
VL: B1 VL with E93S, S94L
notes: Group III
[1]
  optical density: 3.27 OD
[2]
  optical density: 1.2 OD
[3]
  optical density: 1.25 OD

B32: 373_A09 (antibody, V domains shown)
VH: B1 VH
VL: B1 VL with I30L, S31T, E93D, S94T
notes: Group III
[1]
  optical density: 3.11 OD
[2]
  optical density: 3.66 OD
[3]
  optical density: 3.62 OD

B33: 373_A05 (antibody, V domains shown)
VH: B1 VH with D30S, S31D, A49S, G55S, T58K, A106H
VL: B1 VL with I30L, L33V, L47V, L54R, A55H
notes: Group III
[1]
  optical density: 3.03 OD
[2]
  optical density: 3.45 OD
[3]
  optical density: 3.42 OD

B34: 371_H06 (antibody, V domains shown)
VH: B1 VH with S33G, A49S
VL: B1 VL with I30S, L47V, A51V, L54R, E93D, S94L
notes: Group III
[1]
  optical density: 3.7 OD
[2]
  optical density: 3.03 OD
[3]
  optical density: 3.11 OD

B35: 372_G12 (antibody, V domains shown)
VH: B1 VH with S59G, A106H
VL: B1 VL with I30L, S31T, L47V, L54R, A55H, E93D
notes: Group III
[1]
  optical density: 3.5 OD
[2]
  optical density: 2.41 OD
[3]
  optical density: 2.73 OD

B36: 373_B05 (antibody, V domains shown)
VH: B1 VH with D30S, S31D, A49S, G50N, T58K
VL: B1 VL with I30V, S31T, L47V, L54R, E93S, S94N
notes: Group III
[1]
  optical density: 3.23 OD
[2]
  optical density: 3.59 OD
[3]
  optical density: 3.53 OD
